Source: the supplement of paper PMC6757056
± gives the standard deviation of the averaged measurements.

B1: library; a variant is named by its letters at N, in order (parent)
chain: GCUGUCACCGGUGUAUUACCCUAGUGGUCGACCGGUCUGAUGAGUCUNNNNNNAGACGAAACAGC

How the values were obtained:
[1] = variants of: B1; test: FACS-Seq fitted mean relative fluorescence mCherry/BFP without ligand (log10 relative fluorescence); ligand: hypoxanthine (xanthine aptamer); higher = higher reporter protein expression; details: HEK293T, ligand present: no
Procedure, shortened: (§1)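 Enriched HEK293T cells carrying, by lentivirus, an mCherry reporter with the ribozyme switch and an EF1α-BFP marker spent 48 h with or without ligand and were sorted into 6 bins by mCherry/BFP. MiSeq sequencing of PCR-amplified bin genomic DNA gave bin counts. Fluorescence was calculated as the fitted normal mean of those counts. Counts were binned on log10(mCherry/BFP), and means were scaled to five spiked-in control ribozymes.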

[2] = variants of: B1; test: normalized RNA/DNA level with ligand (relative to sTRSVctl = 100) (log10 (% of sTRSVctl)); ligand: hypoxanthine (xanthine aptamer); higher = less ribozyme self-cleavage, higher mRNA level; details: ligand concentration (+) RNA-Seq: 5 mM, HEK293T, reporter: mCherry (pCS4076), ligand present: yes
Procedure, shortened: (§2)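 Ribozyme switch library plasmids with mCherry reporters (eGFP in certain ligand experiments) went into HEK293T cells at 4 µg per 6-well well. Where ligand was used, it was applied 1 h before transfection, and total RNA was extracted with EDTA 72 h later for reverse transcription, amplification, barcoding and sequencing. RNA level is the RNA-to-DNA read ratio normalized to a spiked-in non-cleaving sequence or to the leading sequences, then scaled and log-transformed. Scaling was ×100 with log10, the leading set comprised 25 sequences, and the cutoff was ≥100 DNA reads.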

[3] = variants of: B1; test: normalized RNA/DNA level without ligand (relative to sTRSVctl = 100) (log10 (% of sTRSVctl)); ligand: hypoxanthine (xanthine aptamer); higher = less ribozyme self-cleavage, higher mRNA level; details: HEK293T, reporter: mCherry (pCS4076), ligand present: no
Procedure, shortened: as §2

[4] = variants of: B1; test: FACS-Seq fitted mean relative fluorescence mCherry/BFP with ligand (log10 relative fluorescence); ligand: hypoxanthine (xanthine aptamer); ligand concentration (+) FACS-Seq: 5 mM; higher = higher reporter protein expression; details: HEK293T, ligand present: yes
Procedure, shortened: as §1

Variant	FACS-Seq fitted mean (log10) [1]	normalized RNA/DNA level with ligand (log10) [2]	normalized RNA/DNA level without ligand (log10) [3]	FACS-Seq fitted mean (log10) [4]
UCUCUG	0.0437 ± 0.023	1.77 ± 0.022	1.3 ± 0.032	0.522 ± 0.028
UCUCUA	0.399 ± 0.023	1.94 ± 0.058	1.743 ± 0.0054	0.493 ± 0.055
GCUACG	0.064 ± 0.029	1.95 ± 0.078	1.517 ± 0.015	0.42 ± 0.0069
GCUACC	0.407 ± 0.037	1.91 ± 0.07	1.76 ± 0.024	0.599 ± 0.028
CGAGCA	0.378 ± 0.011	1.942 ± 0.0082	1.716 ± 0.012	0.543 ± 0.087
GGACAA	0.0221 ± 0.17	1.89 ± 0.02	1.76 ± 0.028	0.0902 ± 0.07
GGACAC	0.562 ± 0.091	1.9 ± 0.097	1.71 ± 0.022	0.59 ± 0.014
AGACAA	0.177 ± 0.019	1.89 ± 0.049	1.74 ± 0.053	0.0293 ± 0.022
AGACAU	0.502 ± 0.023	1.907 ± 0.0038	1.755 ± 0.0087	0.538 ± 0.036
AGACAG	0.418 ± 0.037	1.82 ± 0.053	1.391 ± 0.011	0.565 ± 0.052
GGAGCA	0.654 ± 0.037	1.946 ± 0.0077	1.783 ± 0.0088	0.686 ± 0.1
GGAGCG	0.171 ± 0.034	1.93 ± 0.043	1.49 ± 0.04	0.456 ± 0.023
GCUGUG	0.345 ± 0.079	1.93 ± 0.025	1.76 ± 0.022	0.539 ± 0.081
CCUGAG	0.635 ± 0.045	1.918 ± 0.014	1.653 ± 0.0099	0.706 ± 0.046
GCUCUG	0.3 ± 0.0076	1.89 ± 0.045	1.32 ± 0.05	0.685 ± 0.024
GCUUGA	0.378 ± 0.011	1.924 ± 0.018	1.817 ± 0.0041	0.53 ± 0.017
GCUUGG	-0.174 ± 0.029	1.83 ± 0.036	1.374 ± 0.0045	0.326 ± 0.038
UGACUA	0.629 ± 0.091	1.953 ± 0.017	1.86 ± 0.029	0.141 ± 0.079
UGACUC	0.621 ± 0.043	2.01 ± 0.036	1.97 ± 0.033	0.678 ± 0.044
CCUCGA	0.268 ± 0.026	2 ± 0.011	1.87 ± 0.044	0.314 ± 0.059
UCUAGC	0.834 ± 0.0096	1.95 ± 0.023	1.85 ± 0.032	0.666 ± 0.062
UCUAGA	0.927 ± 0.07	1.91 ± 0.028	1.69 ± 0.056	0.0154 ± 0.086
ACUGGA	0.309 ± 0.0042	1.952 ± 0.017	1.71 ± 0.03	0.587 ± 0.064
ACUGGU	0.0934 ± 0.044	1.926 ± 0.0036	1.65 ± 0.06	0.1 ± 0.11

Variant	FACS-Seq fitted mean (log10) [1]	normalized RNA/DNA level with ligand (log10) [2]	normalized RNA/DNA level without ligand (log10) [3]	FACS-Seq fitted mean (log10) [4]
CGAAUA	0.459 ± 0.085	1.9 ± 0.037	1.677 ± 0.0017	0.656 ± 0.027
AGAACC	0.228 ± 0.048	1.937 ± 0.014	1.87 ± 0.022	0.264 ± 0.055
AGAACG	0.48 ± 0.04	1.833 ± 0.015	1.436 ± 0.0026	0.756 ± 0.08
GGAACG	0.254 ± 0.083	1.88 ± 0.072	1.503 ± 0.015	0.597 ± 0.098
CGAGAA	0.492 ± 0.014	1.907 ± 0.0062	1.58 ± 0.0075	0.65 ± 0.015
CGAGAG	0.304 ± 0.055	1.9 ± 0.078	1.71 ± 0.032	0.258 ± 0.014
GGACUG	0.544 ± 0.086	1.888 ± 0.012	1.58 ± 0.041	0.601 ± 0.1
UGAGAG	0.372 ± 0.012	1.87 ± 0.03	1.67 ± 0.04	0.364 ± 0.023
UGAGAU	0.648 ± 0.051	1.887 ± 0.017	1.713 ± 0.0063	0.743 ± 0.033
UGAGAA	0.552 ± 0.021	1.86 ± 0.019	1.74 ± 0.018	0.638 ± 0.083
ACUAAU	0.475 ± 0.018	1.92 ± 0.046	1.67 ± 0.058	0.628 ± 0.041
CGACGG	0.267 ± 0.083	1.83 ± 0.035	1.413 ± 0.0057	0.596 ± 0.078
CGACGC	-0.246 ± 0.0073	1.919 ± 0.0071	1.87 ± 0.019	-0.157 ± 0.067
AGAAAA	0.559 ± 0.023	1.89 ± 0.023	1.78 ± 0.048	0.133 ± 0.027
AGAAAU	0.552 ± 0.024	1.93 ± 0.036	1.83 ± 0.034	0.414 ± 0.021
AGAAAC	0.541 ± 0.013	1.93 ± 0.055	1.796 ± 0.01	0.58 ± 0.023
ACUAUA	0.701 ± 0.099	1.89 ± 0.039	1.823 ± 0.017	0.693 ± 0.019
AGAGCG	0.488 ± 0.026	1.81 ± 0.024	1.401 ± 0.002	0.431 ± 0.067
ACUCAU	0.604 ± 0.014	1.95 ± 0.042	1.84 ± 0.026	0.7156 ± 0.0036
UGACAC	0.161 ± 0.17	1.93 ± 0.03	1.84 ± 0.064	0.132 ± 0.059
UGACAG	0.5894 ± 0.0055	1.93 ± 0.043	1.66 ± 0.064	0.556 ± 0.022
CGAAAC	0.667 ± 0.046	1.92 ± 0.063	1.732 ± 0.0036	0.6 ± 0.081
CGAAAA	0.531 ± 0.032	1.89 ± 0.062	1.6917 ± 0.00075	0.67 ± 0.045
CGAAAU	0.0751 ± 0.04	1.91 ± 0.049	1.73 ± 0.021	0.0235 ± 0.19

Variant	FACS-Seq fitted mean (log10) [1]	normalized RNA/DNA level with ligand (log10) [2]	normalized RNA/DNA level without ligand (log10) [3]	FACS-Seq fitted mean (log10) [4]
UCUAUG	0.305 ± 0.056	1.906 ± 0.008	1.74 ± 0.019	0.426 ± 0.018
UCUAUC	0.701 ± 0.082	2.046 ± 0.019	2 ± 0.023	0.59 ± 0.08
ACUCUA	0.438 ± 0.061	1.947 ± 0.0039	1.86 ± 0.055	0.585 ± 0.062
ACUCUU	0.342 ± 0.07	1.95 ± 0.029	1.84 ± 0.056	0.517 ± 0.056
ACUCUG	0.335 ± 0.0076	1.89 ± 0.054	1.516 ± 0.0021	0.677 ± 0.02
ACUCCC	-0.354 ± 0.031	1.96 ± 0.06	1.924 ± 0.019	-0.746 ± 0.075
ACUCCG	0.262 ± 0.039	1.895 ± 0.0092	1.44 ± 0.026	0.615 ± 0.02
UCUGGG	0.132 ± 0.074	1.97 ± 0.055	1.8 ± 0.04	0.368 ± 0.054
UCUGGC	0.393 ± 0.029	1.94 ± 0.0059	1.87 ± 0.044	0.508 ± 0.055
UCUGGA	0.147 ± 0.0055	1.85 ± 0.043	1.6 ± 0.031	0.462 ± 0.029
CCUUGC	0.165 ± 0.04	1.95 ± 0.082	1.86 ± 0.027	-0.0481 ± 0.064
GGAGAG	0.274 ± 0.052	1.81 ± 0.058	1.3 ± 0.017	0.507 ± 0.023
GGAGAC	-0.358 ± 0.15	1.86 ± 0.066	1.75 ± 0.086	0.13 ± 0.024
GGAGAA	0.538 ± 0.019	1.92 ± 0.022	1.68 ± 0.053	0.643 ± 0.034
GCUUUA	0.789 ± 0.044	1.8872 ± 0.00046	1.93 ± 0.027	0.795 ± 0.071
GCUUUG	-0.186 ± 0.032	1.91 ± 0.048	1.56 ± 0.018	0.36 ± 0.05
GCUUUC	0.909 ± 0.14	1.959 ± 0.011	1.835 ± 0.016	0.723 ± 0.024
CGACAC	-0.0307 ± 0.0086	1.938 ± 0.0063	1.75 ± 0.039	0.154 ± 0.057
ACUGUG	0.119 ± 0.026	1.85 ± 0.033	1.42 ± 0.069	0.0877 ± 0.23
UCUGUG	-0.545 ± 0.051	1.91 ± 0.052	1.706 ± 0.0071	-0.796 ± 0.03
UGAACU	-0.346 ± 0.014	1.913 ± 0.013	1.89 ± 0.0097	0.000122 ± 0.018
UGAACA	0.901 ± 0.04	1.955 ± 0.014	1.86 ± 0.027	0.802 ± 0.072
GCUAAU	0.665 ± 0.11	1.93 ± 0.052	1.788 ± 0.012	0.7639 ± 0.0062
